Patent US20190309092A1

Molecular target: TNFα (UniProt P01375)
Experiment: SPR, Biacore T100, single-cycle kinetics, 1:1 Langmuir fit; Target 1 column

Sequence of UniProt P01375 (P01375 77-233 limits assumed): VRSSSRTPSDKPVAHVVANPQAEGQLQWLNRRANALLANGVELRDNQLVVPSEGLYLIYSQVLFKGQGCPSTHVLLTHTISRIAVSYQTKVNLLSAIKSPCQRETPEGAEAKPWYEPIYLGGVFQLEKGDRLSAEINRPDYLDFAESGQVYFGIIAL

Kd: 0.0643 nM
Substance: Humira IgG(Full) (antibody)
